The assay addresses Fas on primary mouse hepatocytes (mouse) (UniProt P25446). In words: cell-based or functional assay.
UniProt P25446, sequence (P25446 22-327): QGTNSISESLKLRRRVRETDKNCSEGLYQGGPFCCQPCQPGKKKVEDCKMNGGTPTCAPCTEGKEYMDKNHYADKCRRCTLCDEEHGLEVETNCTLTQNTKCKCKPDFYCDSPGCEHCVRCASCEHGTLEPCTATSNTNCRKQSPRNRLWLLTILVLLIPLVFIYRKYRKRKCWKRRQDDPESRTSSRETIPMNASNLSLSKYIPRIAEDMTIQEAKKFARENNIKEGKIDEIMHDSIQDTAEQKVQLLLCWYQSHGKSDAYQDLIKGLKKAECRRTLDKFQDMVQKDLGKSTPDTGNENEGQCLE

Substance agonistic anti-Fas antibody (Jo2) had a TUNEL-stained cells, hepatocytes from Fas (sequence1)-siRNA treated mice (Fas expression silenced), Jo2 500 ng/mL for 24 hours of 7.9% and an apoptotic cells by FITC-TUNEL staining, hepatocytes from untreated or mock-treated mice, Jo2 500 ng/mL for 24 hours of 87.8%.
